# Patent publication US20250313632A1
# Residue numbers refer to the chain shown, from its start.
# B1: MGA017 (antibody, from a related filing, V domains shown)
# VH: EVQLVESGGGLVKPGGSLRLSCAASGFTFSSYGMSWVRQAPGKGLEWVATINSGGSNTYYPDSLKGRFTISRDNAKNSLYLQMNSLRAEDTAVYYCARHDGGAMDYWGQGTTVTVSS
# VL: DIQMTQSPSSLSASVGDRVTITCRASESIYSYLAWYQQKPGKAPKLLVYNTKTLPEGVPSRFSGSGSGTDFTLTISSLQPEDFATYYCQHHYGTPPWTFGQGTRLEIK
# B2: AHP06345 (antibody, V domains shown)
# VH: QVQLVQSGAEVKKPGESLRISCKGSGYSFTSYWISWVRQMPGKGLEWMGRIDPSDSYTNYSPSFQGHVTISADKSISTAYLQWSSLKASDTAMYYCARHTGYYGSGIGMDVWGQGTLVTVSS
# VL: HVILTQPPSVSAAPGQKVTISCSGSSSNIGNNYVSWYRQLPGTAPKLLIYDNNQRPSGIPDRFSGSKSGTSATLGITGLQTGDEADYYCATWDSSLGVVVFGGRTKLTVL
# B3: 72D1D11-z3 (antibody, V domains shown)
# VH: QVQLVQSGSELKKPGASVKVSCKASGYTFTNLGLNWVRQAPGQGLEWMGWINTAGGQPTYAEDFKGRFVFSLDTSVSTAYLQISSLKAEDTAVYYCARDDGYYYTMDYWGQGTTVTVSS
# VL: DIVMTQSPLSLPVTPGEPASISCRSSQSLVHSNGKTYLHWYLQKPGQSPQLLIYKVSNRFSGVPDRFSGSGSGTDFTLKISRVEAEDVGVYYCSQSTHVPWTFGGGTKLEIK
# B4: 72D1D11-z3p7 (antibody, V domains shown)
# VH: B3 VH with D100L
# VL: B3 VL with G34A
# B5: 72D1D11-z3p8 (antibody, V domains shown)
# VH: B3 VH with D100A
# VL: B3 VL with G34A
# Key:
# [1] = biological target: human B7-H3 expressed on A375 tumor cells (human) (UniProt Q5ZPR3); test: flow cytometry on A375 cells, MFI(PE); unit from the axis Conc (nM); fit value of a flat control curve
# [2] = biological target: human B7-H3 expressed on A375 tumor cells (human) (UniProt Q5ZPR3); test: as above; remark: listed apart in the source
# [3] = biological target: human B7-H3 expressed on A375 tumor cells (human) (UniProt Q5ZPR3); test: flow cytometry on A375.S2 cells, MFI(647); unit from the axis Conc (nM); fit value of a flat control curve
# [4] = biological target: human B7-H3 expressed on A375 tumor cells (human) (UniProt Q5ZPR3); test: flow cytometry on A375 cells, MFI(647); unit from the axis Conc (nM); fit value of a flat control curve
# [5] = biological target: human B7-H3 expressed on A375 tumor cells (human) (UniProt Q5ZPR3); test: flow cytometry on A375 cells, MFI(PE); unit from the axis Conc (nM); fit value of a flat control curve; remark: listed apart in the source
# [6] = biological target: human B7-H3 expressed on A375 tumor cells (human) (UniProt Q5ZPR3); test: flow cytometry on A375 cells, MFI(PE); unit from the axis Conc(nM); fit value of a flat control curve
# [7] = biological target: human B7-H3 protein (human) (UniProt Q5ZPR3); test: Octet (BLI) epitope binning on captured human B7-H3; competitor AHP06345
# [8] = biological target: human B7-H3 expressed on A375 tumor cells (human) (UniProt Q5ZPR3); test: flow cytometry on A375 cells, MFI(PE); unit from the axis Conc (nM)
# [9] = biological target: human B7-H3 expressed on A375 tumor cells (human) (UniProt Q5ZPR3); test: flow cytometry on A375 cells, MFI(647); unit from the axis Conc (nM)
# [10] = biological target: human B7-H3 expressed on A375 tumor cells (human) (UniProt Q5ZPR3); test: flow cytometry on A375 cells, MFI(PE); unit from the axis Conc (nM); remark: listed apart in the source
# [11] = biological target: human B7-H3 expressed on A375 tumor cells (human) (UniProt Q5ZPR3); test: flow cytometry on A375.S2 cells, MFI(647); unit from the axis Conc (nM)
# [12] = biological target: human B7-H3 protein (human) (UniProt Q5ZPR3); test: Octet (BLI) epitope binning on captured human B7-H3; competitor CA84D
# [13] = biological target: human B7-H3 expressed on A375 tumor cells (human) (UniProt Q5ZPR3); test: flow cytometry on A375 cells, MFI(PE); unit from the axis Conc (nM); remark: listed apart in the source
# [14] = biological target: human B7-H3 expressed on A375 tumor cells (human) (UniProt Q5ZPR3); test: as above; remark: listed apart in the source
# [15] = biological target: human B7-H3 expressed on A375 tumor cells (human) (UniProt Q5ZPR3); test: as above; remark: listed apart in the source
# [16] = biological target: human B7-H3 expressed on A375 tumor cells (human) (UniProt Q5ZPR3); test: flow cytometry on A375 cells, MFI(PE); unit from the axis Conc(nM)
# [17] = biological target: human B7-H3 protein (human) (UniProt Q5ZPR3); test: Octet (BLI) epitope binning on captured human B7-H3; competitor AHP05562
# [18] = biological target: human B7-H3 expressed on A375 tumor cells (human) (UniProt Q5ZPR3); test: flow cytometry on A375 cells, MFI(PE); unit from the axis Conc (nM); remark: listed apart in the source
# [19] = biological target: human B7-H3 (4Ig) protein (his tag) (human) (UniProt Q5ZPR3); test: SPR (Biacore T200), antibody captured on Protein A chip, B7-H3 injected, 1:1 model
# [20] = biological target: human B7-H3 protein (human) (UniProt Q5ZPR3); test: Octet (BLI) epitope binning on captured human B7-H3; competitor 72D1D11
# [21] = biological target: human B7-H3 protein (human) (UniProt Q5ZPR3); test: Octet (BLI) epitope binning on captured human B7-H3; competitor AHP06345 (self)
# [22] = biological target: human B7-H3 expressed on A375 tumor cells (human) (UniProt Q5ZPR3); test: flow cytometry on A375 cells, MFI(647); unit from the axis Conc (nM); fit value of a flat curve
molecule,measurement,setting,value
hIgG1 (antibody),EC50,[1],0.192 µM
same,EC50,[2],0.036 µM
same,EC50,[3],44 pM
same,EC50,[4],66 pM
same,EC50,[5],0.0021 µM
hIgG (antibody),EC50,[6],0.014 µM
same,EC50,[5],1970 µM
B1,inhibition ratio,[7],-0.09%
same,EC50,[8],0.00034 µM
same,EC50,[9],0.00041 µM
same,EC50,[10],0.00019 µM
same,EC50,[11],0.00037 µM
same,inhibition ratio,[12],3.65%
same,EC50,[13],0.00026 µM
same,EC50,[14],0.00028 µM
same,EC50,[15],0.00022 µM
same,EC50,[16],0.00015 µM
same,inhibition ratio,[17],91.5%
same,EC50,[18],0.0003 µM
same,Kd,[19],0.00179 µM
same,koff,[19],0.00132 s⁻¹
same,kon,[19],737000 M⁻¹ s⁻¹
same,inhibition ratio,[20],98.9%
B2,inhibition ratio,[21],91.8%
same,inhibition ratio,[12],-3.77%
same,EC50,[16],0.0027 µM
same,inhibition ratio,[17],-6.36%
same,Kd,[19],0.00147 µM
same,koff,[19],0.000254 s⁻¹
same,kon,[19],173000 M⁻¹ s⁻¹
B3,EC50,[9],0.00064 µM
same,EC50,[15],0.0004 µM
same,EC50,[18],0.00058 µM
B4,EC50,[22],115 µM
B5,EC50,[22],22.4 µM
